Assay results as given in the supplement of paper PMC10567573.

B1: TLE6 (parent)
chain: FWHDTLTEQLWRIFAGVHDEKAKP

Variants of: B1
Experiment: protein stability index of a GFP-peptide fusion (GPS, HEK-293T) (PSI 1-6); higher = more stable
Details: c terminus: a fixed tail appended
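Note: lentivirally expressed fusions sorted by FACS into six bins by GFP to DsRed ratio, PSI derived from sequencing read proportions per bin multiplied by bin number.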

Protein stability index: each site, then its substitutions
H18: I 2.92 | D 2.1 | R 1.84 | W 1.36 | S 2.72 | N 2.09 | T 2.13 | M 2.48 | G 1.79 | K 1.53 | L 2.67 | V 1.61 | Q 1.5 | E 2.07
K23: Y 1.92 | M 2.8 | S 2.17 | E 1.65 | F 3.09 | V 2.71 | T 2.3 | D 1.49 | A 1.78 | N 2.32 | L 1.89 | G 1.35 | H 2.5 | I 1.64 | W 2.25 | Q 1.83 | C 2.13
A22: N 1.94 | L 1.58 | C 1.81 | I 1.74 | M 2.03 | Q 1.53 | F 3.14 | G 1.88 | T 2.15 | D 1.9 | H 1.83 | R 1.84 | K 1.64
P24: W 1.92 | A 1.7 | I 3.17 | T 1.86 | F 2.44 | E 2.03 | H 2.1 | N 2.68 | Y 1.58 | V 2.97 | S 2.07 | M 1.64 | C 2.95 | Q 1.9 | L 1.5 | G 1.66 | R 1.69
E8: A 1.66 | L 2.23 | H 2.52 | S 1.64 | P 1.76 | T 1.74 | G 1.69 | D 2.02 | M 1.1 | C 1.62 | Q 2.64 | W 2.35 | I 1.66 | K 2.04
L6: F 1.58 | V 1.75 | P 1.63 | R 2.53 | A 2.67 | D 1.46 | S 2.66 | N 2.31 | I 2.36 | W 1.27 | G 1.77 | T 1.81 | E 1.91 | M 1.85 | C 1.97 | K 2.4
F1: P 2.18 | H 1.96 | S 1.91 | D 2.17 | E 1.81 | I 1.95 | G 2.32 | M 2.12 | L 1.93 | T 2.01 | R 2.48 | Y 2.05 | W 1.82 | V 1.8 | C 2.42 | N 2.12
T5: W 1.46 | E 1.91 | D 2.13 | S 1.98 | N 2.23 | Y 2.35 | V 2.62 | I 2.26 | R 1.53 | K 2.78 | Q 1.22 | P 2.73 | M 1.96
W2: L 2.54 | R 2.46 | P 2.16 | E 2.41 | V 3.26 | D 2.61 | H 3 | N 2.1 | M 1.42 | F 1.9 | Q 2.87
E20: V 1.9 | F 1.82 | W 2.86 | T 1.91 | G 1.91 | C 1.79 | P 1.87 | S 2.41 | D 2.62 | K 1.87 | Q 1.96 | I 1.99 | M 2.88 | N 2.19 | H 1.46
H3: Y 1.91 | V 1.65 | I 2.7 | F 1.96 | E 2.47 | L 1.9 | K 1.82 | R 1.88 | C 1.95 | A 3.32 | S 1.72 | T 2.75
L10: Y 1.75 | T 1.74 | Q 2.19 | D 2.34 | S 2.61 | I 2.09 | H 2.54 | F 1.68 | N 1.92 | V 2.11 | P 1.61 | A 2.17
R12: V 1.71 | I 2.73 | Q 1.94 | D 1.94 | M 1.52 | W 2.47 | E 1.63 | G 2.23 | F 2.21 | T 2.02 | K 2.17 | L 1.91 | C 2.88 | H 2.11
G16: Y 2.51 | P 3.4 | Q 1.89 | W 2.23 | C 1.83 | H 2.26 | T 1.62 | A 1.88 | R 1.6 | I 1.89 | L 1.64 | V 2.85 | E 1.9 | S 1.82
A15: K 1.81 | G 2.02 | P 2.23 | T 1.89 | D 1.86 | E 1.77 | S 2.43 | H 1.86 | F 1.73 | Q 1.61 | I 1.79
V17: Q 2.06 | E 1.83 | P 1.65 | Y 1.54 | H 2.82 | S 1.85 | M 1.93 | C 1.47 | W 1.61 | F 1.69 | N 1.83 | L 1.48 | D 1.92 | R 2.25
I13: C 2.39 | E 2.99 | H 1.94 | M 2.13 | V 1.72 | Y 2.1 | F 1.96 | W 1.47 | R 2.02 | N 1.59 | P 2.85 | Q 2.54
F14: H 1.65 | C 2.62 | D 1.61 | S 1.75 | V 2.35 | Q 1.52 | K 2.61 | G 2.21 | E 2.19 | N 1.45 | P 1.98 | T 2.39 | I 2.56 | W 1.89 | Y 2.13
W11: E 2.85 | Y 2.87 | L 1.85 | G 2.46 | I 1.79 | R 2.22 | N 2.19 | Q 2.21 | P 3.12 | S 2.18 | V 1.56 | T 2.35 | D 2.82 | K 2.52
D4: C 1.91 | W 1.29 | E 1.99 | F 3.05 | G 2.07 | R 1.58 | M 2.44 | I 2.06 | T 1.73 | V 2.09 | L 1.74 | Q 2.29 | Y 3.37
Q9: W 2.79 | V 4.83 | H 2.59 | D 1.97 | T 2.38 | P 2.69 | A 3.78 | E 1.58 | I 2.55 | G 2.65 | L 1.79 | R 2.48 | M 1.74 | Y 1.65 | S 2.04 | F 1.97
K21: Y 3.31 | W 2.44 | T 1.85 | I 3.25 | E 2.08 | L 2.2 | S 1.6 | Q 1.81 | R 1.31 | M 2.85 | H 1.69 | C 1.51
T7: P 2.01 | G 2.28 | K 2.16 | L 2.3 | A 1.92 | I 2.04 | E 1.42 | M 2.19 | W 2 | Y 2.31 | H 2.24 | S 2.07 | N 1.36 | C 3.13 | V 1.86
D19: P 1.8 | I 2.08 | T 2.7 | H 1.65 | M 2.1 | A 2.33 | R 2.35 | Y 2.97 | F 2.61 | K 1.7 | V 3.94 | N 2.8 | E 1.62 | W 3.85
